# According to the supplement of paper PMC9170038:
# System: MS2 coat protein
# Test: apparent KD of MS2 coat protein; designed switch direction (-1 OFF switch, 1 ON switch): -1; higher = weaker reporter binding
# Summary of the method: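 The buffer was Tris-HCl pH 7.5 with KCl, MgCl2, BSA, DTT, tRNA and Tween-20. In it, SNAP-549-labelled MS2 coat protein was titrated in doubling steps from 0.7 or 1.5 nM to 3 µM over chip-bound RNA switches transcribed by stalled E. coli RNA polymerase on Illumina chips. Apparent KD is the per-design median over clusters of curve fits to normalised fluorescence.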
# [1] = Eterna round: R95, input ligand: microRNA oligo, concentration not stated
# [2] = Eterna round: R95, input ligand: FMN 200 uM
# [3] = Eterna round: R95, input ligand: none
# [4] = input ligand: microRNA oligo, concentration not stated
Sequence,apparent KD of MS2 coat protein (input ligand: FMN 200 uM) [nM],apparent KD of MS2 coat protein (input ligand: none) [nM],apparent KD of MS2 coat protein [1] [nM],apparent KD of MS2 coat protein [2] [nM],apparent KD of MS2 coat protein [3] [nM],apparent KD of MS2 coat protein [4] [nM]
"UCAUGUCCUGAGGAUAUGCAGCGGAUAAACGCAGCAGAAGGCAGGACAUGAGGAUCACCCAUGUGUGCCUUCUA [Exclusion 6 Mod5 of JL of Mod of Letion by ViennaUCT] (Eterna round: R97, puzzle: Exclusion 6)",18.3,190,–,–,–,–
"UCAUGUCCUGAGGAUAUGUAGCGGAUAAACGCAACAGAAGGCAGGACAUGAGGAUCACCCAUGUGCGCCUUUCA [Exclusion 6 Mod2 of JL of Mod of Letion by ViennaUCT] (Eterna round: R97, puzzle: Exclusion 6)",26.7,84.5,–,–,–,–
UCAUGUUUAGAGGAUAUGAUUACUCUAGAGUGAUCAGAAGGCUAGACAUGAGGAUCACCCAUGUCAGAACAUGU [Exclusion 6 - B - 17:a] (puzzle: Exclusion 6),–,–,24.5,–,–,–
"UCCAGUAUAUGGAGAUUUUACAUGAGGAUCACCCAUGUUGGGACAGCUUUUUGCUUGUCUUAUCCUACUUCGUGUGU [Design #4] (Eterna round: R97, puzzle: Sensor, turn-off variant 1)",51,56.3,–,–,–,–
UCCGAACAUGAGGAUCACCCAUGUGAGGAUAUCCCGAGAUUAAAUGCCGCAAGAAGGCGGAGAAGGCGCAUGGG [Biditiinen] (puzzle: Exclusion 1),–,–,17.3,20.6,19.5,–
"UCCGGACAUGAGGAUCACCCAUGUCAGGAUAUACCCGAGGCAGCAAACACGCUAGCCAGUAGAAGGGACAUGGU [Geenma] (Eterna round: R97, puzzle: Exclusion 1)",18.3,20.7,–,–,–,–
"UCCGUUUGAGGAUAUAUGUAGACAAACAUGAGGAUCACCCAUGUCGGGAUCGAAAUGUCCGUAGAAGGCAAACUGG [Eternabot (L2) Solution 13] (Eterna round: R97, puzzle: Exclusion 5)",65.2,22.9,–,–,–,–
"UCCUGACAUGAGGAUCACCCAUGUUAGGAUAUGACAUUUGGCGCGACAGUGUGGAGUGUUAGAAGGGAUGUGGG [-29.9, -27.2 kcal, A 24%] (Eterna round: R97, puzzle: Exclusion 1)",18.3,16.5,–,–,–,–
"UCCUUACUGGUCAGGAUAUACAUUCGCGGGUGGGUGUAGAAGGGACAUGAGGAUCACCCAUGUACGUUACAUCC [alecazam54g] (Eterna round: R97, puzzle: Brourd's mod of Exclusion 4)",18,16,–,–,–,–
"UCGAUGUGAGGAUAUAUAUGCAGUAAUCCUUAUAUUUUAUAACUUGAGGAUCACCCAAGUAGAAGGCGCGACGU [JR_Ex2_Sub058] (Eterna round: R97, puzzle: Exclusion 2)",27.3,31.1,–,–,–,–
"UCGAUGUGAGGAUAUAUAUGCAGUAGUCCUUAUGUUUUAUAACUUGAGGAUCACCCAAGUAGAAGGCGCGACGU [JR_Ex2_Sub060] (Eterna round: R97, puzzle: Exclusion 2)",49.2,39.5,–,–,–,–
"UCGCUCCGUGUAGGAUAUCGCCGUACUAUGCGGCGAGAAGGACAUGAGGAUCACCCAUGUAUGUUAUUAUCACGCGUGGCGCAA [Design 61] (Eterna round: R96, puzzle: Exclusion NG 1)",17.9,16.2,–,–,–,13.4
"UCGCUCCGUGUAGGAUAUCGCCGUUCUAUUCGGCGAGAAGGACAUGAGGAUCACCCAUGUAUGUUAUUAUCACGUGUGGCGCGC [Design 55] (Eterna round: R96, puzzle: Exclusion NG 1)",36,20.6,–,–,–,14
"UCGCUCCGUGUAGGAUAUCGUUGUACCCUGCGGCGAGAAGGACAUGAGGAUCACCCAUGUAUGUUAUUAUCACGCGUGGCGCAA [Design 69] (Eterna round: R96, puzzle: Exclusion NG 1)",15.9,18.3,–,–,–,13.4
"UCGCUCCGUGUAGGAUAUCGUUGUAUGAUGCGGCGAGAAGGACAUGAGGAUCACCCAUGUAUGUUAUUAUCACGCGUGGCGCAA [Design 65] (Eterna round: R96, puzzle: Exclusion NG 1)",18.5,20.6,–,–,–,15.3
"UCGCUCCGUGUAGGAUAUCGUUGUAUUAUGCGGCGAGAAGGACAUGAGGAUCACCCAUGUAUGUUAUUAUCACGCGUGGCGCAA [Design 66] (Eterna round: R96, puzzle: Exclusion NG 1)",14.8,18.7,–,–,–,14.8
"UCGCUCCGUGUAGGAUAUCGUUGUAUUCUGCGGCGAGAAGGACAUGAGGAUCACCCAUGUAUGUUAUUAUCACGCGUGGCGCAA [Design 67] (Eterna round: R96, puzzle: Exclusion NG 1)",–,–,–,–,–,13.9
UCGGCGCGAGGAUAUACGUUUGCUUUUUUUUGUCUUUGUGUACAUGAGGAUCACCCAUGUAGAAGGCGCGCCGC [Apr-15 SS2-22] (puzzle: Exclusion 2),–,–,18.5,–,–,–

Sequence,apparent KD of MS2 coat protein (input ligand: FMN 200 uM) [nM],apparent KD of MS2 coat protein (input ligand: none) [nM],apparent KD of MS2 coat protein [1] [nM],apparent KD of MS2 coat protein [2] [nM],apparent KD of MS2 coat protein [3] [nM],apparent KD of MS2 coat protein [4] [nM]
"UCGUGUAUAGAGGAUAUAUUAAUAUUUAAAACAAUAGAAGGCUAAACAUGAGGAUCACCCAUGUAUUUGGUUUU [JR_Ex6_Sub054] (Eterna round: R97, puzzle: Exclusion 6)",58.4,20.9,–,–,–,–
"UCGUGUGCGUAGGAUAUCGGUAUGAAGGGAGAAUGAGAAGGGCGGACAUGAGGAUCACCCAUGUGUGCCGGAAA [EX6 B.4] (Eterna round: R97, puzzle: Exclusion 6)",43.3,18,–,–,–,–
"UCGUUCCGUGUAGGAUAUUGGCCUUCCUCGGGCCGAGAAGGACAUGAGGAUCACCCAUGUAUGCUAUUAUCGCGCGUGGCGCAC [Design 96] (Eterna round: R96, puzzle: Exclusion NG 1)",141,33,–,–,–,24.5
"UCUCCACAUGAGGAUCACCCAUGUCAGGAUAUGCUGCGGCUACUAAAAGAGAAUUGCGGCAGAAGGGACACGCC [EX1 B.25] (Eterna round: R97, puzzle: Exclusion 1)",68,20.2,–,–,–,–
"UCUCCUCCCGUAAGGAUAUUCAUGCGUACCACGCGGAAGAAGGUACAUGAGGAUCACCCAUGUAAUUAACACCG [BmEX4 B.9] (Eterna round: R97, puzzle: Brourd's mod of Exclusion 4)",30.7,24.3,–,–,–,–
"UCUCGUUGGCAAGGAUAUCCUACAUUGUUCUGGCCCGGGCAUGCUACAUGAGGAUCACCCAUGUGGGAGAAGGUGCGUCAUUGC [Design 23] (Eterna round: R96, puzzle: Exclusion NG 2)",146,140,–,–,–,77.4
"UCUGGUCGAGGAUAUACAUGAGGAUCACCCAUGUGGUUACGUGACGAUAGUCACGAAUGUAGAAGGCGACCAGA [E3/4-A2] (Eterna round: R97, puzzle: Exclusion 3)",326,230,–,–,–,–
"UCUGGUCGAGGAUAUACGUGAGGUGCUUCGGCACCAGGUCUACAUGAGGAUCACCCAUGUAGAAGGCGACCAGA [EX2 #61] (Eterna round: R97, puzzle: Exclusion 2)",62.1,16.7,–,–,–,–
UCUGGUCGGAAGGAUAUGGUCGGGUCAAAUCGGCCAGAAGGUCUGACAUGAGGAUCACCCAUGUGAGUCCAAAG [Esceus] (puzzle: Exclusion 6),–,–,21.6,51.7,20.8,–
"UCUGGUGCAGGAUAUACAUGAGGAUCACCCAUGUGAUCAGCAGUCCUCGGACUGCAAUGUAGAAGGGCACCAGA [E3/1-D2] (Eterna round: R97, puzzle: Exclusion 3)",47.1,1230,–,–,–,–
"UCUUCACAUGAGGAUCACCCAUGUCAGGAUAUAAGGUCUUGUCUACGUUGAAGGGACUUUAGAAGGGACACUUG [EX1 B.6] (Eterna round: R97, puzzle: Exclusion 1)",107,36,–,–,–,–
"UCUUCACAUGAGGAUCACCCAUGUGAGGAUAUGGAUUCGCUGGCCGUAGCCAGUGGAUCCAGAAGGCGCGUGAU [JL-ex1-4.23] (Eterna round: R97, puzzle: Exclusion 1)",65,74,–,–,–,–
"UCUUGUUGUCCGUGAGAAGACAUGAGGAUCACCCAUGUUAGUUUGAUUAUGAUGUGUAAGUUUGUUGCUCGUUUUAU [JR_STOV1_v2_Sub071] (Eterna round: R97, puzzle: Sensor, turn-off variant 1)",50.2,56.5,–,–,–,–
"UCUUUAUUUGUGAGGAUAUCGAUAAAAUGGAUUGUCGAGAAGGCACAUGAGGAUCACCCAUGUGUGGAACAGCA [JR_BMEx4_Sub024] (Eterna round: R97, puzzle: Brourd's mod of Exclusion 4)",54.8,18.8,–,–,–,–
"UCUUUCAUUGUGAGGAUAUGCCCAAAUAAAAGCGGGCAGAAGGCACAUGAGGAUCACCCAUGUCCUGCGGUUAU [salish99_bmx4_r4_150] (Eterna round: R97, puzzle: Brourd's mod of Exclusion 4)",357,56.9,–,–,–,–
"UGAACUGUAGGAUAUACAUGAGGAUCACCCAUGUCCCUUCGAUGAGGUCCCACCACGUGUAGAAGGAUGGAAGA [Eternabot (L1) Solution 11] (Eterna round: R97, puzzle: Exclusion 3)",36.8,42.2,–,–,–,–
UGAAUGUGAGGAUAUGGUGAGUAGUGCCUGAGCGCUGCUCACCAGAAGGCACAUGAGGAUCACCCAUGUACUUG [JL-ex4-2.07 denovo] (puzzle: Exclusion 4),–,–,49.4,–,–,–
